# B1: GGACGGATCGCGTGATGACGAGGGGAATGAACACCCCGGACAATCAGACACGGTCATCTCACACACCTCCCTGA (nucleic acid)
# chain: GGACGGATCGCGTGATGACGAGGGGAATGAACACCCCGGACAATCAGACACGGTCATCTCACACACCTCCCTGA
# modifications: RNA, all phosphodiester, T or U not given here
# Assays:
# [1] = SPA KD determination for ADP aptamer F01, nucleoside analogs and mimetics; format: binding; settings: SPA competition; KD estimated from IC50; FIG. 30
# Procedure: (§1) The specificity of the ADP aptamer clone F01 was characterized using a variety of nucleoside analogues and mimetics as shown in FIG. 30. NEN flashplates used in the ADP assay were prepared as described above using 150 pmol ADP clone F01 ( in 20 μl 1×PBS incubated in designated wells with shaking at 650 RPM for 30 min). Excess F01 aptamer was removed by washing with 1×PBS 3-times and blotting as before. Treated wells were incubated with 30 μl of 1 μM ^3H-ADP in 1× Selection Buffer for 30 s with shaking at 650 RPM and then assessed for ADP-mediated signal by quantification on a TopCount, ^3H SPA scintillation counter. Thereafter, 1 μl of each test compound was added to the appropriate wells and the plate shaken at 650 RPM for 30 s prior to recounting on TopCount, ^3H SPA scintillation counter. Titration of each test compound was continued with subsequent 1 μl additions up to 10 mM final concentration. The dissociation constant KD was estimated from the IC50 of the competitive binding curve.
# [2] = ADP SPA screening of ADP aptamer clones; format: binding; settings: 1 μM 3H-ADP; vs. clone R0; FIG. 27
# Procedure: Mini-prepped plasmid DNA and corresponding sequence (Table 4) were obtained from Lark Technologies. Any sequence that differed by more than two nucleotides from all other ADP aptamer clones was considered to be unique for the purposes of screening. “Unique” clones were PCR amplified from purified plasmid DNA using the original 5′-primer used in the selections (JD18.25B; SEQ ID NO: 17) and a new 3′-primer, 5′-[…]-3′ (JD18.122.A; 200 nM scale, 46-mer) Tm ˜58° C.; SEQ ID NO: 72). This primer adds a 3′-sequence tag to the transcribed RNA molecules which allows the aptamer clones to be immobilized onto the surface of an NEN streptavidin coated flash plate via base pairing with a biotinylated DNA capture oligo (MK08.112A; 5′-biotin-[…]-3′; SEQ ID NO: 73).
# NEN flashplates used in the ADP SPA screen and competition binding studies were prepared by incubating the individual wells with 40 pmol of MK08.112A biotinylated capture probe in 22 μl of PBS Buffer: BupH (0.05% tRNA, 0.025% Tween 20) with and shaking at 650 RPM, 15 min. […] Treated wells were incubated with 30 μl of 1 μM ^3H-ADP in 1× Selection Buffer for 30 s with shaking at 650 RPM and then assessed for ADP-mediated signal by quantification on a TopCount, ^3H SPA scintillation counter.
# Clones were initially assessed for the ability to yield ADP-mediated signal in the ADP SPA.
# [3] = SPA KD determination for ADP aptamer F01, ATP; format: binding
# Procedure: as §1
# This impurity confounds precise determination of ADP aptamer selectivity by SPA competition.
# [4] = SPA competitive binding of ADP aptamer clones (cold ADP vs other adenosine nucleoside derivatives); settings: competitive binding analysis; FIG. 29
# Procedure: NEN flashplates used in the ADP SPA screen and competition binding studies were prepared by incubating the individual wells with 40 pmol of MK08.112A biotinylated capture probe in 22 μl of PBS Buffer: BupH (0.05% tRNA, 0.025% Tween 20) with and shaking at 650 RPM, 15 min. Excess capture probe was removed from the wells by washing with 1×PBS 3 times and inverting plate with force to remove liquid and blotting them dry on paper towels. Crude transcription of RNA transcribed with capture probe sequence (5 μl) in 25 μl 1×PBS was incubated in designated wells with shaking at 650 RPM for 30 min. Excess aptamer was removed by washing with 1×PBS 3 times and blotting as before. Treated wells were incubated with 30 μl of 1 μM ^3H-ADP in 1× Selection Buffer for 30 s with shaking at 650 RPM and then assessed for ADP-mediated signal by quantification on a TopCount, ^3H SPA scintillation counter.
# The best ADP binders, e.g., clones 1, 2, 11, 12, 14, and 16 were subsequently tested for ADP/ATP discrimination by competition with either cold ADP or ATP (FIG. 28). Clones such as F01 (clone #11), whose SPA signal was competed off with the lowest concentration of ADP, i.e., the best ADP binder, and correspondingly the highest concentration of ATP, i.e., the worst ATP binder, were considered to be ADP selective.
molecule,measurement,setting,value
B1,KD values of other nucleoside derivatives and mimetics relative to KD for ADP,[1],more than 300 fold
same,ADP-mediated signal in the SPA screening assay above background signal,[2],more than 2.5 fold
same,KD for ATP relative to KD for ADP,"[3]; SPA competition, KD estimated from IC50",at least 70 fold
same,selectivity for ADP over ATP relative to what preliminary studies indicated,[3]; after column purification of ATP,approximately 4 fold
same,"selectivity for ADP compared to other adenosine nucleoside derivatives (AMP, ATP, cAMP)",[4],highly selective for ADP

# From US20040018515A1, “Compositions selective for adenosine diphosphate and methods of using same” (priority 2002, published 2004)
